# Laboratory results: the RNAGym collection of RNA variant scans (doi:10.7554/elife.80360)
# B1: HDV Ribozyme (parent)
# chain: GGCCGGCAUGGUCCCAGCCUCCUCGCUGGCGCCGGCUGGGCAACAUUCCGAGGGGACCGUCCCCUCGGUAAUGGCGAAUGGGACCCA
# Variants of: B1
# Experiment: self-cleavage, relative activity (ratio to wild type); higher = more cleavage; co-transcriptional
row,Variant,self-cleavage
1,GGCCGGCAUGGUCCCAGCCUCCUCGCUGGCGCCGGCUGGGCAACAUUGCGAGGGGACCGUCCCCUCGGUAAUGGGGAAUGGGACCCA [C48G C75G],0.0639
2,GGCCGGCAUGGUCCCAGCCUCCUCGCUGGCGCCGGCUGGGCAACAUUGCGAGGGGACCGUCCCCUCGGUAAUGGCGAAUGGGACUCA [C48G C85U],0.831
3,GGCCGGCAUGGUCCCAGCCUCCUCGCUGGCGCCGGCUGGGCAACAUUACGAGGGGACCGUCCCCUCGGUAAUGGCGCAUGGGACCCA [C48A A77C],0.237
4,GGCCGGCAUGGUCCCAGCCUCCUCGCUGGCGCCGGCUGGGCAACAUUACGAGGGGACCGUCCCCUCGGUAAUGGCGUAUGGGACCCA [C48A A77U],0.673
5,GGCCGGCAUGGUCCCAGCCUCCUCGCUGGCGCCGGCUGGGCAACAUUACGAGGGGACCGUCCCCUCGGUAAUGGCGGAUGGGACCCA [C48A A77G],0.601
6,GGCCGGCAUGGUCCCAGCCUCCUCGCUGGCGCCGGCUGGGCAACAUUACGAGGGGACCGUCCCUUCGGUAAUGGCGAAUGGGACCCA [C48A C64U],0.923
7,GGCCGGCAUGGUCCCAGCCUCCUCGCUGGCGCCGGCUGGGCAACAUUGCGAGGGGACCGUCGCCUCGGUAAUGGCGAAUGGGACCCA [C48G C62G],0.269
8,GGCCGGCAUGGUCCCAGCCUCCUCGCUGGCGCCGGCUGGGCAACAUUGCGAGGGGACCGUCACCUCGGUAAUGGCGAAUGGGACCCA [C48G C62A],0.35
9,GGCCGGCAUGGUCCCAGCCUCCUCGCUGGCGCCGGCUGGGCAACAUUGCGAGGGGACCGUCUCCUCGGUAAUGGCGAAUGGGACCCA [C48G C62U],0.746
10,GGCCGGCAUGGUCCCAGCCUCCUCGCUGGCGCCGGCUGGGCAACAUUGCGAGGGGACCGUCCCCUCGGUAAUGGCGACUGGGACCCA [C48G A78C],0.199
11,GGCCGGCAUGGUCCCAGCCUCCUCGCUGGCGCCGGCUGGGCAACAUUGCGAGGGGACCGUCCCCUCGGUAAUGGCGAGUGGGACCCA [C48G A78G],0.86
12,GGCCGGCAUGGUCCCAGCCUCCUCGCUGGCGCCGGCUGGGCAACAUGCCGAGGGGACCGUCGCCUCGGUAAUGGCGAAUGGGACCCA [U47G C62G],0.534
13,GGCCGGCAUGGUCCCAGCCUCCUCGCUGGCGCCGGCUGGGCAACAUGCCUAGGGGACCGUCCCCUCGGUAAUGGCGAAUGGGACCCA [U47G G50U],0.831
14,GGCCGGCAUGGUCCCAGCCUCCUCGCUGGCGCCGGCUGGGCAACAUUACGAGGUGACCGUCCCCUCGGUAAUGGCGAAUGGGACCCA [C48A G54U],0.975
15,GGCCGGCAUGGUCCCAGCCUCCUCGCUGGCGCCGGCUGGGCAACAUUACGAGGCGACCGUCCCCUCGGUAAUGGCGAAUGGGACCCA [C48A G54C],1.17
16,GGCCGGCAUGGUCCCAGCCUCCUCGCUGGCGCCGGCUGGGCAACAUUACGAGGAGACCGUCCCCUCGGUAAUGGCGAAUGGGACCCA [C48A G54A],1.06
17,GGCCGGCAUGGUCCCAGCCUCCUCGCUGGCGCCGGCUGGGCAACAUGCCGAGUGGACCGUCCCCUCGGUAAUGGCGAAUGGGACCCA [U47G G53U],0.973
18,GGCCGGCAUGGUCCCAGCCUCCUCGCUGGCGCCGGCUGGGCAACAUUACGAGGGGACCGUACCCUCGGUAAUGGCGAAUGGGACCCA [C48A C61A],1.02
19,GGCCGGCAUGGUCCCAGCCUCCUCGCUGGCGCCGGCUGGGCAACAUUGCGAGGGGAGCGUCCCCUCGGUAAUGGCGAAUGGGACCCA [C48G C57G],1.03
20,GGCCGGCAUGGUCCCAGCCUCCUCGCUGGCGCCGGCUGGGCAACAUUGCGAGGGGACCGUCCCGUCGGUAAUGGCGAAUGGGACCCA [C48G C64G],0.266
21,GGCCGGCAUGGUCCCAGCCUCCUCGCUGGCGCCGGCUGGGCAACAUUGCGAGGGGACCGUCCCUUCGGUAAUGGCGAAUGGGACCCA [C48G C64U],0.85
22,GGCCGGCAUGGUCCCAGCCUCCUCGCUGGCGCCGGCUGGGCAACAUGCCGAGGGGACCUUCCCCUCGGUAAUGGCGAAUGGGACCCA [U47G G59U],1.12

row,Variant,self-cleavage
1,GGCCGGCAUGGUCCCAGCCUCCUCGCUGGCGCCGGCUGGGCAACAUGCCGAGGGGACCAUCCCCUCGGUAAUGGCGAAUGGGACCCA [U47G G59A],1.14
2,GGCCGGCAUGGUCCCAGCCUCCUCGCUGGCGCCGGCUGGGCAACAUUGCGAGGGGACCGUCCCCUCGGUGAUGGCGAAUGGGACCCA [C48G A70G],0.772
3,GGCCGGCAUGGUCCCAGCCUCCUCGCUGGCGCCGGCUGGGCAACAUUGCGAGGGGACGGUCCCCUCGGUAAUGGCGAAUGGGACCCA [C48G C58G],1.11
4,GGCCGGCAUGGUCCCAGCCUCCUCGCUGGCGCCGGCUGGGCAACAUUGCGAGGGGACUGUCCCCUCGGUAAUGGCGAAUGGGACCCA [C48G C58U],0.617
5,GGCCGGCAUGGUCCCAGCCUCCUCGCUGGCGCCGGCUGGGCAACAUGCCGAGGGGACCGUCCCCUCGGAAAUGGCGAAUGGGACCCA [U47G U69A],1.27
6,GGCCGGCAUGGUCCCAGCCUCCUCGCUGGCGCCGGCUGGGCAACAUGCCGAGGGGACCGUCCCCGCGGUAAUGGCGAAUGGGACCCA [U47G U65G],0.95
7,GGCCGGCAUGGUCCCAGCCUCCUCGCUGGCGCCGGCUGGGCAACAUGCCGAGGGGACCGUCCCCCCGGUAAUGGCGAAUGGGACCCA [U47G U65C],0.923
8,GGCCGGCAUGGUCCCAGCCUCCUCGCUGGCGCCGGCUGGGCAACAUUACGAGGGGACCGUCCCCUCGGUAAUGGCGAAUGGCACCCA [C48A G82C],0.35
9,GGCCGGCAUGGUCCCAGCCUCCUCGCUGGCGCCGGCUGGGCAACAUGCCGAGGGGACCGUCCCCUCGGUAAUGGCGAAUGGGACCAA [U47G C86A],0.814
10,GGCCGGCAUGGUCCCAGCCUCCUCGCUGGCGCCGGCUGGGCAACAUUACGAGGGGACCGUCCCCACGGUAAUGGCGAAUGGGACCCA [C48A U65A],0.845
11,GGCCGGCAUGGUCCCAGCCUCCUCGCUGGCGCCGGCUGGGCAACAUGCCGAGGGGACCGUCCCCUCGGUAAUGGCGAAUGCGACCCA [U47G G81C],0.128
12,GGCCGGCAUGGUCCCAGCCUCCUCGCUGGCGCCGGCUGGGCAACAUUACGAGGGGCCCGUCCCCUCGGUAAUGGCGAAUGGGACCCA [C48A A56C],1.18
13,GGCCGGCAUGGUCCCAGCCUCCUCGCUGGCGCCGGCUGGGCAACAUUGCGAGGGGACCGUGCCCUCGGUAAUGGCGAAUGGGACCCA [C48G C61G],1.06
14,GGCCGGCAUGGUCCCAGCCUCCUCGCUGGCGCCGGCUGGGCAACAUUACGAGGGGACCGUCCCCUCGGUACUGGCGAAUGGGACCCA [C48A A71C],0.688
15,GGCCGGCAUGGUCCCAGCCUCCUCGCUGGCGCCGGCUGGGCAACAUUACGAGGGGACCGUCCCCUCGGUAUUGGCGAAUGGGACCCA [C48A A71U],0.867
16,GGCCGGCAUGGUCCCAGCCUCCUCGCUGGCGCCGGCUGGGCAACAUGCCGAUGGGACCGUCCCCUCGGUAAUGGCGAAUGGGACCCA [U47G G52U],0.877
17,GGCCGGCAUGGUCCCAGCCUCCUCGCUGGCGCCGGCUGGGCAACAUUGCGAGGGGACCGUCCCCUCGGUAAUGGCGAAUGGGAACCA [C48G C84A],0.932
18,GGCCGGCAUGGUCCCAGCCUCCUCGCUGGCGCCGGCUGGGCAACAUUACGACGGGACCGUCCCCUCGGUAAUGGCGAAUGGGACCCA [C48A G52C],1.03
19,GGCCGGCAUGGUCCCAGCCUCCUCGCUGGCGCCGGCUGGGCAACAUUACGGGGGGACCGUCCCCUCGGUAAUGGCGAAUGGGACCCA [C48A A51G],0.903
20,GGCCGGCAUGGUCCCAGCCUCCUCGCUGGCGCCGGCUGGGCAACAUUACGCGGGGACCGUCCCCUCGGUAAUGGCGAAUGGGACCCA [C48A A51C],1.03
21,GGCCGGCAUGGUCCCAGCCUCCUCGCUGGCGCCGGCUGGGCAACAUUGGGAGGGGACCGUCCCCUCGGUAAUGGCGAAUGGGACCCA [C48G C49G],0.906
22,GGCCGGCAUGGUCCCAGCCUCCUCGCUGGCGCCGGCUGGGCAACAUGCCGAGGGGACCGUCCUCUCGGUAAUGGCGAAUGGGACCCA [U47G C63U],1.27

row,Variant,self-cleavage
1,GGCCGGCAUGGUCCCAGCCUCCUCGCUGGCGCCGGCUGGGCAACAUGCCGAGGGGACCGUCCCCUCGGUAAUGGCGAAUGGGACGCA [U47G C85G],1.18
2,GGCCGGCAUGGUCCCAGCCUCCUCGCUGGCGCCGGCUGGGCAACAUGCCGAGGGGACCGUCCCCUCGGUAAUGGCGAAUGGGACACA [U47G C85A],0.959
3,GGCCGGCAUGGUCCCAGCCUCCUCGCUGGCGCCGGCUGGGCAACAUGCCGAGGGGACCGUCCCCUCGGUAAUGGCGAAUGGCACCCA [U47G G82C],0.237
4,GGCCGGCAUGGUCCCAGCCUCCUCGCUGGCGCCGGCUGGGCAACAUUACGAGGGGACCGUCCCCUCGGUAAUGGCGAAUUGGACCCA [C48A G80U],0.242
5,GGCCGGCAUGGUCCCAGCCUCCUCGCUGGCGCCGGCUGGGCAACAUUACGAGGGGACCGUCCCCUUGGUAAUGGCGAAUGGGACCCA [C48A C66U],0.988
6,GGCCGGCAUGGUCCCAGCCUCCUCGCUGGCGCCGGCUGGGCAACAUUACGAGGGGACCGUCCCCUAGGUAAUGGCGAAUGGGACCCA [C48A C66A],0.92
7,GGCCGGCAUGGUCCCAGCCUCCUCGCUGGCGCCGGCUGGGCAACAUGCCGAGGGGACCGUCCCUUCGGUAAUGGCGAAUGGGACCCA [U47G C64U],1.28
8,GGCCGGCAUGGUCCCAGCCUCCUCGCUGGCGCCGGCUGGGCAACAUUACGAGGGGACCGUCACCUCGGUAAUGGCGAAUGGGACCCA [C48A C62A],0.878
9,GGCCGGCAUGGUCCCAGCCUCCUCGCUGGCGCCGGCUGGGCAACAUUACGAGGGGACCGUCCCCUCGGUAAUGGCGAAUGGGACCCC [C48A A87C],1.16
10,GGCCGGCAUGGUCCCAGCCUCCUCGCUGGCGCCGGCUGGGCAACAUUACGAGGGGACCGUCCCCUCGGUAAUGGCGAAUGGGACCCU [C48A A87U],1.03
11,GGCCGGCAUGGUCCCAGCCUCCUCGCUGGCGCCGGCUGGGCAACAUGCCGAGGGGACCGUCCCCUCGGUAAUGGCGAACGGGACCCA [U47G U79C],0.322
12,GGCCGGCAUGGUCCCAGCCUCCUCGCUGGCGCCGGCUGGGCAACAUUACGAGGGGACCAUCCCCUCGGUAAUGGCGAAUGGGACCCA [C48A G59A],1.22
13,GGCCGGCAUGGUCCCAGCCUCCUCGCUGGCGCCGGCUGGGCAACAUUACGAGGGGACUGUCCCCUCGGUAAUGGCGAAUGGGACCCA [C48A C58U],1.11
14,GGCCGGCAUGGUCCCAGCCUCCUCGCUGGCGCCGGCUGGGCAACAUUACGAGGGGACCGUCCCCUCGGUAAUGGCGAACGGGACCCA [C48A U79C],0.514
15,GGCCGGCAUGGUCCCAGCCUCCUCGCUGGCGCCGGCUGGGCAACAUUACGAGGGGACCGUCCCCUCGGUAAUGGCGAAGGGGACCCA [C48A U79G],0.982
16,GGCCGGCAUGGUCCCAGCCUCCUCGCUGGCGCCGGCUGGGCAACAUUGCGAGGGGACCGUCCCCUCGGUAAUGGCGUAUGGGACCCA [C48G A77U],0.748
17,GGCCGGCAUGGUCCCAGCCUCCUCGCUGGCGCCGGCUGGGCAACAUUACGAGGGGACCGUCCCCUCGGUAAUGCCGAAUGGGACCCA [C48A G74C],0.208
18,GGCCGGCAUGGUCCCAGCCUCCUCGCUGGCGCCGGCUGGGCAACAUUGCGAGGGGACCGUCCGCUCGGUAAUGGCGAAUGGGACCCA [C48G C63G],0.306
19,GGCCGGCAUGGUCCCAGCCUCCUCGCUGGCGCCGGCUGGGCAACAUUACGAGGGGACCGUCCCCUCGUUAAUGGCGAAUGGGACCCA [C48A G68U],1.1
20,GGCCGGCAUGGUCCCAGCCUCCUCGCUGGCGCCGGCUGGGCAACAUUACGAGGGGACCGUCCCCUCGGUAAUAGCGAAUGGGACCCA [C48A G73A],0.755
